B1: GpH7-A5/GpH7-B3 variant Q295_16H/GpL16-k0 (antibody, human IgG1, kappa)
heavy 1: not shown
heavy 2: not shown
light: DIVMTQSPLSLPVTPGEPASISCQASESLVHSNRNTYLHWYLQKPGQSPQLLIYKVSNRFSGVPDRFSGSGSGTDFTLKISRVEAEDVGVYYCSQNTHVPPTFGQGTKVEIERTVAAPSVFIFPPSDEQLKSGTASVVCLLNNFYPREAKVQWKVDNALQSGNSQESVTEQDSKDSTYSLSSTLTLSKADYEKHKVYACEVTHQGLSSPVTKSFNRGEC
notes: heterodimerized anti-glypican-3 IgG1; alteration in one H chain only; also called He Ab
B2: GpH7-B3 variant T335_04F/GpL16-k0 (antibody, human IgG1, kappa)
heavy: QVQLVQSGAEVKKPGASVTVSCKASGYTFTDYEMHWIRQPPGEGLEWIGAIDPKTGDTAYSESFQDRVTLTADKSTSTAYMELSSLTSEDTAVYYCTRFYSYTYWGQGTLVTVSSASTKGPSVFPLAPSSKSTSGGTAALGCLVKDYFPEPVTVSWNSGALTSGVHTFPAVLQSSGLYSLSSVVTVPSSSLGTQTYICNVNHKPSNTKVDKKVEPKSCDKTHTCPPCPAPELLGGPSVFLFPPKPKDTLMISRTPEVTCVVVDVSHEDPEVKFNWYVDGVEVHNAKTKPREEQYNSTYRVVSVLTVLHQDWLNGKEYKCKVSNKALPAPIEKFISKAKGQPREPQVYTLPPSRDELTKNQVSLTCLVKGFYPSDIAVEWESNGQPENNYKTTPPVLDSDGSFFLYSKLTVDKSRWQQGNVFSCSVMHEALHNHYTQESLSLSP
light: B1 light
notes: homodimerized IgG1, mutation in both H chains; also called Ho Ab
B3: GpH7-B3 variant T335_05P/GpL16-k0 (antibody, human IgG1, kappa)
heavy: not shown
light: B1 light
notes: as for B2
B4: GpH7-B3 variant S337_20W/GpL16-k0 (antibody, human IgG1, kappa)
heavy: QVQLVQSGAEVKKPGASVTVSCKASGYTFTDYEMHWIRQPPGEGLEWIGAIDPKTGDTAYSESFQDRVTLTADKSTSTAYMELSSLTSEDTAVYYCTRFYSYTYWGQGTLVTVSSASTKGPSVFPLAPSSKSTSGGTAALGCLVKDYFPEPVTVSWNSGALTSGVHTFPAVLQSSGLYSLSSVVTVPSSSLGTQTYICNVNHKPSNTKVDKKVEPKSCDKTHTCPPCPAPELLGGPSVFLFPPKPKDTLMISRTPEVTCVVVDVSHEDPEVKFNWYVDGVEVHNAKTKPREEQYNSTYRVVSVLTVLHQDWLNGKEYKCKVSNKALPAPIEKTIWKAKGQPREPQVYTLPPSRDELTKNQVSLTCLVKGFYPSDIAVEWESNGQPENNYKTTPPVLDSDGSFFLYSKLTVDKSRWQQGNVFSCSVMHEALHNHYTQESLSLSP
light: B1 light
notes: as for B2
B5: GpH7-B3 variant H268_09D/GpL16-k0 (antibody, human IgG1, kappa)
heavy: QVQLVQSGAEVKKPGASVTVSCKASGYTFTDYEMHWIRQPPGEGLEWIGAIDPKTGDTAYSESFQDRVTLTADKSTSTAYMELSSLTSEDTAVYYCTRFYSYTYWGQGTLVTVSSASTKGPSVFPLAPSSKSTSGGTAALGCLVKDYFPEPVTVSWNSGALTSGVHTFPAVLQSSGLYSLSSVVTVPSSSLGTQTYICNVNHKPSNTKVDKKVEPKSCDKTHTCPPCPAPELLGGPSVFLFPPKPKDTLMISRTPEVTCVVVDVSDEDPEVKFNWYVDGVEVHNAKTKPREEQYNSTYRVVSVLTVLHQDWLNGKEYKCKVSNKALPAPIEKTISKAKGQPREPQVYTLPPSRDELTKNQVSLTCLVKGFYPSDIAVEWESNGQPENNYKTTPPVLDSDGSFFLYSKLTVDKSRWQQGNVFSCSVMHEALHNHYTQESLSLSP
light: B1 light
notes: as for B2
B6: GpH7-B3 variant H268_18N/GpL16-k0 (antibody, human IgG1, kappa)
heavy: not shown
light: B1 light
notes: as for B2
B7: GpH7-A5/GpH7-B3 variant S298_04F/GpL16-k0 (antibody, human IgG1, kappa)
heavy 1: not shown
heavy 2: not shown
light: B1 light
notes: as for B1
B8: GpH7-B3 variant S337_19Q/GpL16-k0 (antibody, human IgG1, kappa)
heavy: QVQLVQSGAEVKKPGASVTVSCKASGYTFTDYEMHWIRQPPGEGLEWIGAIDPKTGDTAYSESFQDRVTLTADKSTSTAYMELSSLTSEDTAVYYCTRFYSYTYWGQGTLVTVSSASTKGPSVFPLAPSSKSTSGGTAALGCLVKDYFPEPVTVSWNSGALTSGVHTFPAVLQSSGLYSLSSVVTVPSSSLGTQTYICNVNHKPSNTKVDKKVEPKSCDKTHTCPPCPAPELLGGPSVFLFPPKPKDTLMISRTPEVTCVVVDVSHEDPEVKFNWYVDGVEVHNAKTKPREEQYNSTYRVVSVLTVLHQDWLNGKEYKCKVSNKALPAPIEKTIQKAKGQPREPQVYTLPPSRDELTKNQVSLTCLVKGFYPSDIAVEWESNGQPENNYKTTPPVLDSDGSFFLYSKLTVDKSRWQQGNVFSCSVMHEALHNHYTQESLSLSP
light: B1 light
notes: as for B2
B9: GpH7-B3 variant H268_01G/GpL16-k0 (antibody, human IgG1, kappa)
heavy: not shown
light: B1 light
notes: as for B2
B10: GpH7-A5/GpH7-B3 variant Q295_18N/GpL16-k0 (antibody, human IgG1, kappa)
heavy 1: not shown
heavy 2: not shown
light: B1 light
notes: as for B1
B11: GpH7-A5/GpH7-B3 variant S298_09D/GpL16-k0 (antibody, human IgG1, kappa)
heavy 1: not shown
heavy 2: not shown
light: B1 light
notes: as for B1
B12: GpH7-B3 variant S337_08L/GpL16-k0 (antibody, human IgG1, kappa)
heavy: not shown
light: B1 light
notes: as for B2
B13: GpH7-B3 variant T335_09D/GpL16-k0 (antibody, human IgG1, kappa)
heavy: not shown
light: B1 light
notes: as for B2
B14: GpH7-B3 variant A330_19Q/GpL16-k0 (antibody, human IgG1, kappa)
heavy: not shown
light: B1 light
notes: as for B2
B15: GpH7-B3 variant S337_06M/GpL16-k0 (antibody, human IgG1, kappa)
heavy: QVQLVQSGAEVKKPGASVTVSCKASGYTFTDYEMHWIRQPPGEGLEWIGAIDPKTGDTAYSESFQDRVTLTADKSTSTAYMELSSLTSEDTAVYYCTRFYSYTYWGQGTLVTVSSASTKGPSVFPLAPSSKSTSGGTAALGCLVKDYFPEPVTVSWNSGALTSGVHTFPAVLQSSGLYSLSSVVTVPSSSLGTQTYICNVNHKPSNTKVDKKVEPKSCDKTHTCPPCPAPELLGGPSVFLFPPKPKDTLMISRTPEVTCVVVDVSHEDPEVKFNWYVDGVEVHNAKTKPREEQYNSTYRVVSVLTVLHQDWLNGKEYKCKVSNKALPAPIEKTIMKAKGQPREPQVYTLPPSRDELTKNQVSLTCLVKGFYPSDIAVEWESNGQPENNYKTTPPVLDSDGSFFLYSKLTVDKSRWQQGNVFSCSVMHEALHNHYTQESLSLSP
light: B1 light
notes: as for B2
B16: GpH7-B3 variant T335_08L/GpL16-k0 (antibody, human IgG1, kappa)
heavy: not shown
light: B1 light
notes: as for B2
B17: GpH7-A5/GpH7-B3 variant V266_16H/GpL16-k0 (antibody, human IgG1, kappa)
heavy 1: not shown
heavy 2: not shown
light: B1 light
notes: as for B1
B18: GpH7-A5/GpH7-B3 variant Y296_12R/GpL16-k0 (antibody, human IgG1, kappa)
heavy 1: not shown
heavy 2: not shown
light: B1 light
notes: as for B1
B19: GpH7-B3 variant S337_10E/GpL16-k0 (antibody, human IgG1, kappa)
heavy: not shown
light: B1 light
notes: as for B2
B20: GpH7-A5/GpH7-B3 variant Y296_05P/GpL16-k0 (antibody, human IgG1, kappa)
heavy 1: not shown
heavy 2: not shown
light: B1 light
notes: as for B1
B21: GpH7-B3 variant A330_20W/GpL16-k0 (antibody, human IgG1, kappa)
heavy: not shown
light: B1 light
notes: as for B2
B22: GpH7-B3 variant S337_09D/GpL16-k0 (antibody, human IgG1, kappa)
heavy: not shown
light: B1 light
notes: as for B2
B23: GpH7-B3 variant A330_04F/GpL16-k0 (antibody, human IgG1, kappa)
heavy: not shown
light: B1 light
notes: as for B2
B24: GpH7-B3 variant D265_10E/GpL16-k0 (antibody, human IgG1, kappa)
heavy: not shown
light: B1 light
notes: as for B2
B25: GpH7-B3 variant H268_13S/GpL16-k0 (antibody, human IgG1, kappa)
heavy: not shown
light: B1 light
notes: as for B2
B26: GpH7-B3 variant T335_07I/GpL16-k0 (antibody, human IgG1, kappa)
heavy: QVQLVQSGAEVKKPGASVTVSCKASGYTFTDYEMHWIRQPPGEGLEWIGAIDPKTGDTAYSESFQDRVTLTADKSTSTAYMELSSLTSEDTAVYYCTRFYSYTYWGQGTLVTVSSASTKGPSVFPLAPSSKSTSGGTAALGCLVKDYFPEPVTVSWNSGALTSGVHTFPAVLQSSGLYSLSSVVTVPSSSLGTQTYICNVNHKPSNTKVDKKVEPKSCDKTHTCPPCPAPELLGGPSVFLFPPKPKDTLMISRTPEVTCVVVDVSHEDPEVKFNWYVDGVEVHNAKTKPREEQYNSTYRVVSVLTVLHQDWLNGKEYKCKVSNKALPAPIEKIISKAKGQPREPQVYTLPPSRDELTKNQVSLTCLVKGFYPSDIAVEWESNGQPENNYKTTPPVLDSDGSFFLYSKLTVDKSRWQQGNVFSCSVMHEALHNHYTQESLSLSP
light: B1 light
notes: as for B2
B27: GpH7-A5/GpH7-B3 variant Y296_01G/GpL16-k0 (antibody, human IgG1, kappa)
heavy 1: not shown
heavy 2: not shown
light: B1 light
notes: as for B1
B28: GpH7-A5/GpH7-B3 variant S298_02A/GpL16-k0 (antibody, human IgG1, kappa)
heavy 1: not shown
heavy 2: not shown
light: B1 light
notes: heterodimerized anti-glypican-3 IgG1; alteration in one H chain only; also called He Ab; GpH7-A5/GpH7-B3-15-02A/GpL16-k0
B29: GpH7-B3 variant I336_14T/GpL16-k0 (antibody, human IgG1, kappa)
heavy: not shown
light: B1 light
notes: as for B2
B30: GpH7-B3 variant S337_07I/GpL16-k0 (antibody, human IgG1, kappa)
heavy: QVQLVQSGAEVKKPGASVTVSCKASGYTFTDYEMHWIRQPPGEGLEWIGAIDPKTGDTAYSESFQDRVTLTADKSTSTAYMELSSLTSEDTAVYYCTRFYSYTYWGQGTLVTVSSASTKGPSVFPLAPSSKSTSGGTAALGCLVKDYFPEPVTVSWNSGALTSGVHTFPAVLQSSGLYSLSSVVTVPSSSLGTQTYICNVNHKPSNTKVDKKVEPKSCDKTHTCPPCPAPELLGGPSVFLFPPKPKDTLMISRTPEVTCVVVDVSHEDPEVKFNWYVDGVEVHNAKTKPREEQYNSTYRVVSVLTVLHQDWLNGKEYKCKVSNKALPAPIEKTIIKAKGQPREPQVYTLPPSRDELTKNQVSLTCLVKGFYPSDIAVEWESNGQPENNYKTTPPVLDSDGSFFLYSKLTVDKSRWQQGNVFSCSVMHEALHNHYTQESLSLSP
light: B1 light
notes: as for B2
B31: GpH7-B3 variant H268_10E/GpL16-k0 (antibody, human IgG1, kappa)
heavy: not shown
light: B1 light
notes: as for B2
B32: GpH7-B3 variant S337_15Y/GpL16-k0 (antibody, human IgG1, kappa)
heavy: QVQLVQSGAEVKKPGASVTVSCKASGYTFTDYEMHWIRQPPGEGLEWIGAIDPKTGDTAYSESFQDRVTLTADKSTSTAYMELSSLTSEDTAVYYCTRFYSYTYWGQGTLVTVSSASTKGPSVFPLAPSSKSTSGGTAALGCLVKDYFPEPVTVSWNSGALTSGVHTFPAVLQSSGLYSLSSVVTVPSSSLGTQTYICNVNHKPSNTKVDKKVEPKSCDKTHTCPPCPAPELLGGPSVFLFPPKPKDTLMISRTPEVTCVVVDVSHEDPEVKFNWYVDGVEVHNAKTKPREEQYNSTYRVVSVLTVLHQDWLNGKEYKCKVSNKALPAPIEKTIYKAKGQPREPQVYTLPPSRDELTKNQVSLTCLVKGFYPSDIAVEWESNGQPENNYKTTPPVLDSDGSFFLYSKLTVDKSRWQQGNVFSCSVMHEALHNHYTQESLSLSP
light: B1 light
notes: as for B2
B33: GpH7-B3 variant A330_10E/GpL16-k0 (antibody, human IgG1, kappa)
heavy: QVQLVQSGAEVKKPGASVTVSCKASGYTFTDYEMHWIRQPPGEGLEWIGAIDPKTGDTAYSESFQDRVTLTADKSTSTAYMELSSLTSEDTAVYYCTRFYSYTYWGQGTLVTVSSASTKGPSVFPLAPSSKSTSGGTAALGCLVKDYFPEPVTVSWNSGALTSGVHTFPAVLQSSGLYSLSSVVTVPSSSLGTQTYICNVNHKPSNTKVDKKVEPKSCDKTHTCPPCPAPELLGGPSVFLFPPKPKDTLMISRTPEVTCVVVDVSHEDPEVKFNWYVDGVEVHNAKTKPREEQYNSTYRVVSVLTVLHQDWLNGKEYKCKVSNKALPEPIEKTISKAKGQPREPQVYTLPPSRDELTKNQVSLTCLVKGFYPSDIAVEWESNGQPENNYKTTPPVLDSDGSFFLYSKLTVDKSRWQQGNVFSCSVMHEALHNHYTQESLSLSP
light: B1 light
notes: as for B2
B34: GpH7-B3 variant I336_11K/GpL16-k0 (antibody, human IgG1, kappa)
heavy: not shown
light: B1 light
notes: as for B2
B35: GpH7-A5/GpH7-B3 variant Y296_03V/GpL16-k0 (antibody, human IgG1, kappa)
heavy 1: not shown
heavy 2: not shown
light: B1 light
notes: as for B1
B36: GpH7-A5/GpH7-B3 variant S298_05P/GpL16-k0 (antibody, human IgG1, kappa)
heavy 1: not shown
heavy 2: not shown
light: B1 light
notes: as for B1
B37: GpH7-A5/GpH7-B3 variant Y296_11K/GpL16-k0 (antibody, human IgG1, kappa)
heavy 1: not shown
heavy 2: not shown
light: B1 light
notes: as for B1
B38: GpH7-B3 variant I336_13S/GpL16-k0 (antibody, human IgG1, kappa)
heavy: not shown
light: B1 light
notes: as for B2
B39: GpH7-B3 variant T335_06M/GpL16-k0 (antibody, human IgG1, kappa)
heavy: not shown
light: B1 light
notes: as for B2
B40: GpH7-A5/GpH7-B3 variant S298_01G/GpL16-k0 (antibody, human IgG1, kappa)
heavy 1: not shown
heavy 2: not shown
light: B1 light
notes: as for B1
B41: GpH7-A5/GpH7-B3 variant S298_03V/GpL16-k0 (antibody, human IgG1, kappa)
heavy 1: not shown
heavy 2: not shown
light: B1 light
notes: as for B1
B42: GpH7-B3 variant I336_08L/GpL16-k0 (antibody, human IgG1, kappa)
heavy: not shown
light: B1 light
notes: as for B2
B43: GpH7-A5/GpH7-B3 variant S298_07I/GpL16-k0 (antibody, human IgG1, kappa)
heavy 1: not shown
heavy 2: not shown
light: B1 light
notes: as for B1
B44: GpH7-B3 variant I336_09D/GpL16-k0 (antibody, human IgG1, kappa)
heavy: not shown
light: B1 light
notes: as for B2
B45: GpH7-B3 variant S337_04F/GpL16-k0 (antibody, human IgG1, kappa)
heavy: not shown
light: B1 light
notes: as for B2
B46: GpH7-A5/GpH7-B3 variant Q295_20W/GpL16-k0 (antibody, human IgG1, kappa)
heavy 1: not shown
heavy 2: not shown
light: B1 light
notes: as for B1
B47: GpH7-B3 variant I336_12R/GpL16-k0 (antibody, human IgG1, kappa)
heavy: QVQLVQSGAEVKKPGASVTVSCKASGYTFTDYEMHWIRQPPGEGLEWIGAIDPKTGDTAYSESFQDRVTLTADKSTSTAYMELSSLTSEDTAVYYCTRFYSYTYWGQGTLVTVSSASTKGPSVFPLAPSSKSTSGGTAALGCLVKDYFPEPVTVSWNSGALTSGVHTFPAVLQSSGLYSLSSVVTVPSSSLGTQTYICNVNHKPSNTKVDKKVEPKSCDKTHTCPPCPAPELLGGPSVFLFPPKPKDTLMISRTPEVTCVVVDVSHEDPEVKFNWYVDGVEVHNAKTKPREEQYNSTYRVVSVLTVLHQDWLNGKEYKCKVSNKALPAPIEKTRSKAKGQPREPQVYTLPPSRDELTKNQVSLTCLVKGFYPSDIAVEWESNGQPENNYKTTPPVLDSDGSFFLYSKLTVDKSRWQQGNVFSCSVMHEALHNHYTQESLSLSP
light: B1 light
notes: as for B2
B48: GpH7-B3 variant A330_01G/GpL16-k0 (antibody, human IgG1, kappa)
heavy: not shown
light: B1 light
notes: as for B2

How the values were obtained:
FcγRIIb = molecular target: T1, FcγRIIb (human, UniProt P31994 43-217); assay: SPR (Biacore), captured antibody, FcγR as analyte; relative binding, control GpH7-A5/GpH7-B3/GpL16-k0 = 100
T1 construct: extracellular domain; also called FcgRIIb; 2b
T1 sequence (looked up): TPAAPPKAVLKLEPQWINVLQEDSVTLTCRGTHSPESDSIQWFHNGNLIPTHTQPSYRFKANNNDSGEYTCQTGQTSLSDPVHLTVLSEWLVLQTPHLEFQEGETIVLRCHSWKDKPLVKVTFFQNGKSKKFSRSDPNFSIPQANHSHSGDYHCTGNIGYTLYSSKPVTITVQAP

FcγRIIa R [1] = molecular target: T2, FcγRIIa R (human, UniProt P12318 34-217); assay: as above
T2 construct: extracellular domain; also called FcgRIIa R type; 2aR
T2 sequence (looked up): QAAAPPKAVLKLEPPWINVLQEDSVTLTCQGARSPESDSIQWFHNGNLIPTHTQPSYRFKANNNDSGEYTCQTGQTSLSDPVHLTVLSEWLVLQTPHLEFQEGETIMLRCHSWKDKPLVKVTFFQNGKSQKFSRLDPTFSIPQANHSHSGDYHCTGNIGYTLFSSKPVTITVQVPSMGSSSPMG

FcγRIIa R [2] = molecular target: T2, FcγRIIa R; assay: SPR (Biacore); He/Con_2aR divided by He/Con_2b (FcγRIIa R over FcγRIIb)
FcγRIa = molecular target: T3, FcγRIa (human, UniProt P12314 16-292); assay: SPR (Biacore), captured antibody, FcγRIa analyte; relative to GpH7-B3/GpL16-k0
T3 construct: extracellular domain; soluble His-tagged extracellular domain expressed in FreeStyle293 cells, used as analyte in Biacore; also called FcgRI; CD64
T3 sequence (P12314 16-292): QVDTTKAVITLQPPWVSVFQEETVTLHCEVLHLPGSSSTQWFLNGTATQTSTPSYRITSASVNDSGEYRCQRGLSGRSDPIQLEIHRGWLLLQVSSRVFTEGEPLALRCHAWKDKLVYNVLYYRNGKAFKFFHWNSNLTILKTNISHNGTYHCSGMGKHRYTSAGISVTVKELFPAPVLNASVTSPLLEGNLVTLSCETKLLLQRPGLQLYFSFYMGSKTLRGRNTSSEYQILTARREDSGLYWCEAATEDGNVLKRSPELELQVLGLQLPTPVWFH

Row | Binder | He/Con_2b (FcγRIIb) [control = 100] | He/Con_2aR (FcγRIIa R [1]) [control = 100] | He_2aR/2b (IIaR/IIb) (FcγRIIa R [2]) [ratio] | Ho/Con_1a (FcγRIa)
1 | B1 | 62.7 | 81.3 | 1.3 | –
2 | B2 | – | – | – | 105 relative, control = 100
3 | B3 | – | – | – | 106 relative, control = 100
4 | B4 | – | – | – | 104 relative, control = 100
5 | B5 | – | – | – | 110 relative, control = 100
6 | B6 | – | – | – | 108 relative, control = 100
7 | B7 | 65.4 | 84 | 1.29 | –
8 | B8 | – | – | – | 105 relative, control = 100
9 | B9 | – | – | – | 108 relative, control = 100
10 | B10 | 64.9 | 82.4 | 1.27 | –
11 | B11 | 48.3 | 67.8 | 1.4 | –
12 | B12 | – | – | – | 105 relative, control = 100
13 | B13 | – | – | – | 107 relative, control = 100
14 | B14 | – | – | – | 106 relative, control = 100
15 | B15 | – | – | – | 102 relative, control = 100
16 | B16 | – | – | – | 105 relative, control = 100
17 | B17 | 57.2 | 76.5 | 1.34 | –
18 | B18 | 79.5 | 99.6 | 1.25 | –
19 | B19 | – | – | – | 104 relative, control = 100
20 | B20 | 36.6 | 47.7 | 1.3 | –
21 | B21 | – | – | – | 108 relative, control = 100
22 | B22 | – | – | – | 106 relative, control = 100
23 | B23 | – | – | – | 107 relative, control = 100
24 | B24 | – | – | – | 103 relative, control = 100

Row | Binder | He/Con_2b (FcγRIIb) [control = 100] | He/Con_2aR (FcγRIIa R [1]) [control = 100] | He_2aR/2b (IIaR/IIb) (FcγRIIa R [2]) [ratio] | Ho/Con_1a (FcγRIa)
25 | B25 | – | – | – | 110 relative, control = 100
26 | B26 | – | – | – | 105 relative, control = 100
27 | B27 | 79.3 | 95.8 | 1.21 | –
28 | B28 | 73.4 | 91.2 | 1.24 | –
29 | B29 | – | – | – | 111 relative, control = 100
30 | B30 | – | – | – | 105 relative, control = 100
31 | B31 | – | – | – | 112 relative, control = 100
32 | B32 | – | – | – | 104 relative, control = 100
33 | B33 | – | – | – | 108 relative, control = 100
34 | B34 | – | – | – | 107 relative, control = 100
35 | B35 | 79.3 | 96.2 | 1.21 | –
36 | B36 | 11.9 | 16 | 1.34 | –
37 | B37 | 72.8 | 94.3 | 1.3 | –
38 | B38 | – | – | – | 110 relative, control = 100
39 | B39 | – | – | – | 106 relative, control = 100
40 | B40 | 80.1 | 98.8 | 1.23 | –
41 | B41 | 64.5 | 86.3 | 1.34 | –
42 | B42 | – | – | – | 109 relative, control = 100
43 | B43 | 70.6 | 90.1 | 1.28 | –
44 | B44 | – | – | – | 108 relative, control = 100
45 | B45 | – | – | – | 105 relative, control = 100
46 | B46 | 44.4 | 60 | 1.35 | –
47 | B47 | – | – | – | 109 relative, control = 100
48 | B48 | – | – | – | 106 relative, control = 100
